The values that follow come from patent publication US20180243244A1.

Where two headings read alike, the source gives them in different places. No end group written: not given here. Bounds are passed on as bounds.

The target in experiment [1] is p62-D3-GST, Q13501.
The target in experiment [2] is p62-D3-GST, Q13501. This is another data set of the same source.
Experiment [3] has as its target p62-D3-GST, Q13501. The experiment is described as follows: SPR (Biacore), legend of FIG. 6.
Experiment [4] addresses p62 (Homo sapiens (Human)), Q13501. The experiment in a line: X-peptide pull down of in vitro transcribed and translated p62, Western blot.

As to RIFSTIEGRTYK (not fully specified) [R11 peptide (biotin-labeled X-peptide with N-terminal Arg)], the fold binding force against N-recognins containing a URB box with p62-D3-GST, Q13501 [1] is 50 times. In the experiment with p62-D3-GST, Q13501 [2], this molecule showed a Kd of 44 nM, a koff of 0.0005 s⁻¹ and a kon of 12300 M⁻¹ s⁻¹. In addition, in the experiment with p62-D3-GST, Q13501 [3], the Kd was 40 nM. In experiment [4], the efficiency of precipitating p62 was > 40%.

The molecule FIFSTIEGRTY (not fully specified) [F11 peptide (biotin-labeled X-peptide with N-terminal Phe)] registered a Kd in the experiment with p62-D3-GST, Q13501 [1] of 3400 nM. Further, in the experiment with p62-D3-GST, Q13501 [2], the Kd turned out to be 3440 nM, the koff was 0.0019 s⁻¹ and the kon came out at 550 M⁻¹ s⁻¹. The molecule further came in with an efficiency of precipitating p62 in experiment [4] of 5%.
